This note sets out measurements from publication PMC3075667.

The target of data set [1] is Δ79AAG wild type (human) (UniProt P29372). Description: EMSA. A general note: In EMSA bound probe runs differently from free probe, usually more slowly.
Data set [2] shares this target. Description: competition.
Where [3] appears, read: 3,N4-ethenocytosine opposite G (G19).

Sequence of UniProt P29372 (P29372 84-298, stated change not applied): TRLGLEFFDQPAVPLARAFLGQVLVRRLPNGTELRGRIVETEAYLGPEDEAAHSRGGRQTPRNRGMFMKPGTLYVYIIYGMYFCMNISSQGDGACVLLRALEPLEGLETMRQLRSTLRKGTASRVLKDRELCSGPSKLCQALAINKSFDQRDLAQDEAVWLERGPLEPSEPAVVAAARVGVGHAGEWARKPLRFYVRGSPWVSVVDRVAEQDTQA

A word on the Kd: it is the equilibrium constant for the complex coming apart. As a reminder, the IC50 is the point on the concentration scale where inhibition reaches its midpoint. ϵA:T 13-mer registered a Kd with Δ79AAG wild type (human) [1] (1,N6-ethenoadenine opposite T) of 46 nM. Further, the IC50 with Δ79AAG wild type (human) [2] (1,N6-ethenoadenine opposite T) was found to be 163 nM.
In the data set with Δ79AAG wild type (human) [1] (setting [3]), ϵC:G 13-mer had a Kd of 21 nM. In addition, the IC50 with Δ79AAG wild type (human) [2] (setting [3]) came out at 39 nM.
